{
  "source": "paper PMC9966940",
  "about": "“Evidence and Metabolic Implications for a New Non-Canonical Role of Cu-Zn Superoxide Dismutase” (International Journal of Molecular Sciences, 2023)",
  "binders": {"B1": {"name": "YWHAZ-His (natural protein, UniProt P63104 1-245, looked up)", "chain": "MDKNELVQKAKLAEQAERYDDMAACMKSVTEQGAELSNEERNLLSVAYKNVVGARRSSWRVVSSIEQKTEGAEKKQQMAREYREKIETELRDICNDVLSLLEKFLIPNASQAESKVFYLKMKGDYYRYLAEVAAGDDKKGIVDQSQQAYQEAFEISKKEMQPTHPIRLGLALNFSVFYYEILNSPEKACSLAKTAFDEAIAELDTLSEESYKDSTLIMQLLRDNLTLWTSDTQGDEAEAGEGGEN"}},
  "molecular_target": "SOD1-His ( (human or mouse cDNA cloned), UniProt P00441 1-154)",
  "sequence (P00441 whole entry)": "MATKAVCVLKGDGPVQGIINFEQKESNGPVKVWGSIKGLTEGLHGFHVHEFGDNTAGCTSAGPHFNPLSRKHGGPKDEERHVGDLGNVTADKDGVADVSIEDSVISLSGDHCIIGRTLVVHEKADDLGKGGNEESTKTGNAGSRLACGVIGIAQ",
  "assay": "cell-based or functional assay",
  "data": [
    {"binder": "B1", "values": [
      {"measurement": "SOD1 activity of purified SOD1 after 15 h incubation with purified YWHAZ at ratios 1:1 and 1:3 (1 SOD1 to 3 YWHAZ protein amount); value at 1:3", "value": "~2", "unit": "fold"}
    ]}
  ]
}
